# Laboratory results as given in patent US20170226169A1.
# Biological target: 109QmHtt (UniProt P42858)
# Experiment: cell-based or functional assay
# Sequence of 109QmHtt (P42858 other isoform, or with tags, fused parts or gaps): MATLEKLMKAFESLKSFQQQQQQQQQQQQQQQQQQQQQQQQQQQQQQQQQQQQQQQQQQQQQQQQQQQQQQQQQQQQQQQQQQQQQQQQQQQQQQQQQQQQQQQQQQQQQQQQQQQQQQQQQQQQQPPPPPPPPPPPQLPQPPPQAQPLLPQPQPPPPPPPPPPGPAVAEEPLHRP
row,Binder,"average size of the aggregates (TIRF microscopy, Neuro2a cells) [µm^2]"
1,RRRRRRRRWDQQQQQQQQQQ (C-terminal amide (CONH2)) [8R10Q],0.3
2,RRRRRRRRWD (C-terminal amide (CONH2)) [8R],3.3

# Results, then the binder that gave them:
row,"average size of the aggregates (TIRF microscopy, Neuro2a cells) [µm^2]",Binder
1,0.2,RRRRRRRRWDQQQQQQQQQQQQQQQ (C-terminal amide (CONH2)) [8R15Q]
2,1.7,RQQRRQQDQRQWQRQRQQR (C-terminal amide (CONH2)) [s8R10Q]
